Laboratory results reported in paper PMC5339220.

Assays:
[1] = target: T1, ComED58E D58E (Streptococcus pneumoniae D39) (UniProt A0A0H2ZLR3); assay: EMSA; details: EMSA: 1x LightShift binding buffer, 1 ug poly(dI-dC), 2.5% glycerol, 0.05% NP-40, 5 mM Mn2+, 5 mM Zn2+, 2-4 ug protein, 1 ng probe, 20 ul, 37 C, 30 min; pH not …
T1 sequence: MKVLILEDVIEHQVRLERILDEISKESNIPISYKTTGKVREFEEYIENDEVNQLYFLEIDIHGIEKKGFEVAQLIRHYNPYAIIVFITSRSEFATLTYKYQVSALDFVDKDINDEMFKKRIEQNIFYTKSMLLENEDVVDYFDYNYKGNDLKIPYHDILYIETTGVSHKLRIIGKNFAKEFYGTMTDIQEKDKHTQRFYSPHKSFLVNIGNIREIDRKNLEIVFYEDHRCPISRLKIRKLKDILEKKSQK

[2] = target: CSP1 (UniProt P60243); assay: EMSA; details: EMSA: 1x LightShift binding buffer, 1 ug poly(dI-dC), 2.5% glycerol, 0.05% NP-40, 5 mM Mn2+, 5 mM Zn2+, 2-4 ug protein, 1 ng probe, 20 ul, 37 C, 30 min; pH not …

## TACACATCTGCTTCTAAAATATTGTTAGAAAACGATTTGACTGTCCTGATCAATTTGTCATGTTCTTATTTCATTTTACTATATTTTTGGTTCGCGGGAAGTCTACTAAGATACTTAAAGATGCAGATAGTGAAAAAAGGTGTAGACATTACCGTAAAAAAGTGATATAATCGTAAGATGTTCAATGTATAGGTGTTAATCATGAGTAGACGTTTTAA (double strand) [C2 probe (cps promoter)]
[1]
  binding: binds
[2]
  binding: no binding
